According to patent publication US20240270831A1:

Assays:
[1] = molecular target: purchased CTNI antigen (UniProt P19429); experiment: fluorescent chromatography card, sandwich; coated on T line; 10.5 ng/ml
[2] = molecular target: purchased CTNI antigen (UniProt P19429); experiment: fluorescent chromatography card, sandwich; coated on T line; 0 ng/ml (blank, no antigen)
[3] = molecular target: purchased CTNI antigen (UniProt P19429); experiment: fluorescent chromatography card, sandwich; coated on T line; 0.7 ng/ml
[4] = molecular target: purchased CTNI antigen (UniProt P19429); experiment: fluorescent chromatography card, sandwich; coated on T line; 3 ng/ml
[5] = molecular target: purchased CTNI antigen (UniProt P19429); experiment: fluorescent chromatography card, sandwich; coated on T line; 18 ng/ml
[6] = molecular target: purchased CTNI antigen (UniProt P19429); experiment: fluorescent chromatography card, sandwich; coated on T line; 0.15 ng/ml
[7] = molecular target: purchased CTNI antigen (UniProt P19429); experiment: fluorescent chromatography card, sandwich; coated on T line, other CTNI antibody on fluorescent microspheres; 50 ng/ml
[8] = molecular target: purchased CTNI antigen (UniProt P19429); experiment: fluorescent chromatography card, sandwich; coated on T line; 0.08 ng/ml
[9] = molecular target: purchased CTNI antigen (UniProt P19429); experiment: fluorescent chromatography card, sandwich; coated on T line; 0.04 ng/ml

Sequence of UniProt P19429 (P19429 2-210 limits assumed): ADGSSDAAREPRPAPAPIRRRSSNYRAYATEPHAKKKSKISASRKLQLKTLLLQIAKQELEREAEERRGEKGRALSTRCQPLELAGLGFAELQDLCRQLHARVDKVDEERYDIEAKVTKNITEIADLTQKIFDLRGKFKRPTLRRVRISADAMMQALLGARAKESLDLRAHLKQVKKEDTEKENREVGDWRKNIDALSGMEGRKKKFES

B1: Anti-cTnI-21C5 monoclonal antibody (antibody, from another filing, V domains shown)
VH: EVQLQQSGPELVKPGASVKMSCKASGYSFTLYVVHWVKQKPGQGLEWIGYIQPYLDGTRYNEKFKGKATLTVDKSSSTAFMELSSLTSEDSAVYYCARTGYGGYGLAWLAYWGQGTLVTVSA
VL: QAVVIQESALTTSPGETVTLTCRSSSGAATTSQYANWVQEKPDHLFTGLIGGSNNRAPGVPARFSGSLIGDKAALTITGAQTEDEAIYFCAIVYSNHWVFGGGTKLTVLG
[1]
  fluorescence reading (name not given): 0.45
[2]
  fluorescence reading (name not given): 0.015
[3]
  fluorescence reading (name not given): 0.045
[4]
  fluorescence reading (name not given): 0.18
[5]
  fluorescence reading (name not given): 0.746
[6]
  fluorescence reading (name not given): 0.026
[7]
  fluorescence reading (name not given): 2.17
[8]
  fluorescence reading (name not given): 0.02
[9]
  fluorescence reading (name not given): 0.017
